Laboratory results taken from article PMC8051608, “Overexpression of GmMYB14 improves high‐density yield and drought tolerance of soybean through regulating plant architecture mediated by the brassinosteroid pathway”.

Molecular target: T1, GmMYB14 (Glycine max cv. Tianlong No. 1, UniProt K7MYP5 1-291)
T1 sequence: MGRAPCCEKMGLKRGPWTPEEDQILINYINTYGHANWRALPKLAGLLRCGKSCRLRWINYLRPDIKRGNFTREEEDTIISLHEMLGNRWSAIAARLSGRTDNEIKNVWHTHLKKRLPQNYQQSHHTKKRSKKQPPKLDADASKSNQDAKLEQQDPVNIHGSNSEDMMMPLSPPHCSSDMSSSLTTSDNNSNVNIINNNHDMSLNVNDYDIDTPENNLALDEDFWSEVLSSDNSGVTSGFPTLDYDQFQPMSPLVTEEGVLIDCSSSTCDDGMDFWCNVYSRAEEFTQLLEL
Assay: EMSA; 100x cold probe competition tested; EMSA Kit (Thermo Fisher), non-denaturing 6% polyacrylamide gel, streptavidin-HRP/ECL detection; buffer, salt, pH and temperature not stated
Conditions: protein: recombinant; tags: His (pCzn1-His vector); label: biotin; annealed complementary oligos

B1: GmBEN1 promoter AC element 1 probe (30 bp) (dsDNA)
DNA 1: TAATACACCAAGCCACCTACCTTGTCTCTTT
DNA 2: AAAGAGACAAGGTAGGTGGCTTGGTGTATTA
  binding result: binds
